{"source": "paper PMC5740061", "about": "(Nature Communications, 2017)", "parents": {"B1": {"name": "SDGF-TB1G1 (TB1G1 displayed on 293F cells) [designed binder] / Biotinylated His-Avi-TEAD1(194–411) [modified: biotin (BirA-500 kit); biotin (BirA-500 kit)] [not stated] (parent complex)", "chain 1": "PDEYIERAKECCKKGDIQCCLRYFEESGDPNVMLICLFCP", "chain 2": "RSIGTTKLRLVEFSAFLEQQRDPDSYNKHLFVHIGHANHSYSDPLLESVDIRQIYDKFPEKKGGLKELFGKGPQNAFFLVKFWADLNCNIQDDAGAFYGVTSQYESSENMTVTCSTKVCSFGKQVVEKVETEYARFENGRFVYRINRSPMCEYMINFIHKLKHLPEKYMMNSVLENFTILLVVTNRDTQETLLCMACVFEVSNSEHGAQHHIYRLVKD"}}}
{"variants_of": "B1", "assay": "mammalian (293F) surface display of a site-saturation mutagenesis library (every non-Cys single substitution), FACS sorting on biotinylated TEAD1 YBD, two sorting rounds, Illumina sequencing with perfect-match mapping; 20 nM biotinylated TEAD, monovalent 2-step stain (TEAD alone 30 min at 4 °C, dilute, pellet, then 20 nM streptavidin-Alexa Fluor 647), flow sorting on a BD Aria"}
{"variant": "chain 1 PDEYIERAKECCKKGDIQCCLRYFEESGDPNVILICLFCP", "note": "[chain 1 M33I]", "enrichment": "-3.16 log2 (fold change of variant abundance after two TEAD sorts vs input, normalised to TB1G1)"}
{"variant": "chain 1 PDEYLERAKECCKKGDIQCCLRYFEESGDPNVMLICLFCP", "note": "[chain 1 I5L]", "enrichment": "-0.381 log2 (fold change of variant abundance after two TEAD sorts vs input, normalised to TB1G1)"}
{"variant": "chain 1 PDEYMERAKECCKKGDIQCCLRYFEESGDPNVMLICLFCP", "note": "[chain 1 I5M]", "enrichment": "-1.87 log2 (fold change of variant abundance after two TEAD sorts vs input, normalised to TB1G1)"}
{"variant": "chain 1 PDEYFERAKECCKKGDIQCCLRYFEESGDPNVMLICLFCP", "note": "[chain 1 I5F]", "enrichment": "-8.36 log2 (fold change of variant abundance after two TEAD sorts vs input, normalised to TB1G1)"}
{"variant": "chain 1 PDEYNERAKECCKKGDIQCCLRYFEESGDPNVMLICLFCP", "note": "[chain 1 I5N]", "enrichment": "-1.34 log2 (fold change of variant abundance after two TEAD sorts vs input, normalised to TB1G1)"}
{"variant": "chain 1 PDEYGERAKECCKKGDIQCCLRYFEESGDPNVMLICLFCP", "note": "[chain 1 I5G]", "enrichment": "-3.97 log2 (fold change of variant abundance after two TEAD sorts vs input, normalised to TB1G1)"}
{"variant": "chain 1 PDEYRERAKECCKKGDIQCCLRYFEESGDPNVMLICLFCP", "note": "[chain 1 I5R]", "enrichment": "-3.27 log2 (fold change of variant abundance after two TEAD sorts vs input, normalised to TB1G1)"}
{"variant": "chain 1 PDEYWERAKECCKKGDIQCCLRYFEESGDPNVMLICLFCP", "note": "[chain 1 I5W]", "enrichment": "-7.46 log2 (fold change of variant abundance after two TEAD sorts vs input, normalised to TB1G1)"}
{"variant": "chain 1 PDEYKERAKECCKKGDIQCCLRYFEESGDPNVMLICLFCP", "note": "[chain 1 I5K]", "enrichment": "-1.5 log2 (fold change of variant abundance after two TEAD sorts vs input, normalised to TB1G1)"}
{"variant": "chain 1 PDEYVERAKECCKKGDIQCCLRYFEESGDPNVMLICLFCP", "note": "[chain 1 I5V]", "enrichment": "-0.274 log2 (fold change of variant abundance after two TEAD sorts vs input, normalised to TB1G1)"}
{"variant": "chain 1 PDEYAERAKECCKKGDIQCCLRYFEESGDPNVMLICLFCP", "note": "[chain 1 I5A]", "enrichment": "-1.2 log2 (fold change of variant abundance after two TEAD sorts vs input, normalised to TB1G1)"}
{"variant": "chain 1 PDESIERAKECCKKGDIQCCLRYFEESGDPNVMLICLFCP", "note": "[chain 1 Y4S]", "enrichment": "-0.738 log2 (fold change of variant abundance after two TEAD sorts vs input, normalised to TB1G1)"}
{"variant": "chain 1 PDETIERAKECCKKGDIQCCLRYFEESGDPNVMLICLFCP", "note": "[chain 1 Y4T]", "enrichment": "-0.869 log2 (fold change of variant abundance after two TEAD sorts vs input, normalised to TB1G1)"}
{"variant": "chain 1 PDEAIERAKECCKKGDIQCCLRYFEESGDPNVMLICLFCP", "note": "[chain 1 Y4A]", "enrichment": "0.259 log2 (fold change of variant abundance after two TEAD sorts vs input, normalised to TB1G1)"}
{"variant": "chain 1 PDEHIERAKECCKKGDIQCCLRYFEESGDPNVMLICLFCP", "note": "[chain 1 Y4H]", "enrichment": "-1.9 log2 (fold change of variant abundance after two TEAD sorts vs input, normalised to TB1G1)"}
{"variant": "chain 1 PDENIERAKECCKKGDIQCCLRYFEESGDPNVMLICLFCP", "note": "[chain 1 Y4N]", "enrichment": "0.0419 log2 (fold change of variant abundance after two TEAD sorts vs input, normalised to TB1G1)"}
{"variant": "chain 1 PDEMIERAKECCKKGDIQCCLRYFEESGDPNVMLICLFCP", "note": "[chain 1 Y4M]", "enrichment": "-0.684 log2 (fold change of variant abundance after two TEAD sorts vs input, normalised to TB1G1)"}
{"variant": "chain 1 PDEEIERAKECCKKGDIQCCLRYFEESGDPNVMLICLFCP", "note": "[chain 1 Y4E]", "enrichment": "-6.52 log2 (fold change of variant abundance after two TEAD sorts vs input, normalised to TB1G1)"}
{"variant": "chain 1 PDEIIERAKECCKKGDIQCCLRYFEESGDPNVMLICLFCP", "note": "[chain 1 Y4I]", "enrichment": "-0.405 log2 (fold change of variant abundance after two TEAD sorts vs input, normalised to TB1G1)"}
{"variant": "chain 1 PDEFIERAKECCKKGDIQCCLRYFEESGDPNVMLICLFCP", "note": "[chain 1 Y4F]", "enrichment": "0.668 log2 (fold change of variant abundance after two TEAD sorts vs input, normalised to TB1G1)"}
{"variant": "chain 1 EDEYIERAKECCKKGDIQCCLRYFEESGDPNVMLICLFCP", "note": "[chain 1 P1E]", "enrichment": "1.12 log2 (fold change of variant abundance after two TEAD sorts vs input, normalised to TB1G1)"}
{"variant": "chain 1 IDEYIERAKECCKKGDIQCCLRYFEESGDPNVMLICLFCP", "note": "[chain 1 P1I]", "enrichment": "-2.27 log2 (fold change of variant abundance after two TEAD sorts vs input, normalised to TB1G1)"}
{"variant": "chain 1 KDEYIERAKECCKKGDIQCCLRYFEESGDPNVMLICLFCP", "note": "[chain 1 P1K]", "enrichment": "-0.294 log2 (fold change of variant abundance after two TEAD sorts vs input, normalised to TB1G1)"}
{"variant": "chain 1 QDEYIERAKECCKKGDIQCCLRYFEESGDPNVMLICLFCP", "note": "[chain 1 P1Q]", "enrichment": "-0.836 log2 (fold change of variant abundance after two TEAD sorts vs input, normalised to TB1G1)"}
{"variant": "chain 1 HDEYIERAKECCKKGDIQCCLRYFEESGDPNVMLICLFCP", "note": "[chain 1 P1H]", "enrichment": "-0.884 log2 (fold change of variant abundance after two TEAD sorts vs input, normalised to TB1G1)"}
{"variant": "chain 1 FDEYIERAKECCKKGDIQCCLRYFEESGDPNVMLICLFCP", "note": "[chain 1 P1F]", "enrichment": "-1.3 log2 (fold change of variant abundance after two TEAD sorts vs input, normalised to TB1G1)"}
{"variant": "chain 1 PDEYIEVAKECCKKGDIQCCLRYFEESGDPNVMLICLFCP", "note": "[chain 1 R7V]", "enrichment": "-2.31 log2 (fold change of variant abundance after two TEAD sorts vs input, normalised to TB1G1)"}
{"variant": "chain 1 PDEYIEKAKECCKKGDIQCCLRYFEESGDPNVMLICLFCP", "note": "[chain 1 R7K]", "enrichment": "0.473 log2 (fold change of variant abundance after two TEAD sorts vs input, normalised to TB1G1)"}
{"variant": "chain 1 PDEYIESAKECCKKGDIQCCLRYFEESGDPNVMLICLFCP", "note": "[chain 1 R7S]", "enrichment": "0.311 log2 (fold change of variant abundance after two TEAD sorts vs input, normalised to TB1G1)"}
{"variant": "chain 1 PDEYIEYAKECCKKGDIQCCLRYFEESGDPNVMLICLFCP", "note": "[chain 1 R7Y]", "enrichment": "-1.01 log2 (fold change of variant abundance after two TEAD sorts vs input, normalised to TB1G1)"}
{"variant": "chain 1 PDEYIEHAKECCKKGDIQCCLRYFEESGDPNVMLICLFCP", "note": "[chain 1 R7H]", "enrichment": "-0.322 log2 (fold change of variant abundance after two TEAD sorts vs input, normalised to TB1G1)"}
{"variant": "chain 1 PDEYIEPAKECCKKGDIQCCLRYFEESGDPNVMLICLFCP", "note": "[chain 1 R7P]", "enrichment": "-2.49 log2 (fold change of variant abundance after two TEAD sorts vs input, normalised to TB1G1)"}
{"variant": "chain 1 PDEYIEDAKECCKKGDIQCCLRYFEESGDPNVMLICLFCP", "note": "[chain 1 R7D]", "enrichment": "-2.25 log2 (fold change of variant abundance after two TEAD sorts vs input, normalised to TB1G1)"}
{"variant": "chain 1 PDEYIEFAKECCKKGDIQCCLRYFEESGDPNVMLICLFCP", "note": "[chain 1 R7F]", "enrichment": "-1.04 log2 (fold change of variant abundance after two TEAD sorts vs input, normalised to TB1G1)"}
{"variant": "chain 1 PDEYIEQAKECCKKGDIQCCLRYFEESGDPNVMLICLFCP", "note": "[chain 1 R7Q]", "enrichment": "-0.484 log2 (fold change of variant abundance after two TEAD sorts vs input, normalised to TB1G1)"}
{"variant": "chain 1 PDEYIEGAKECCKKGDIQCCLRYFEESGDPNVMLICLFCP", "note": "[chain 1 R7G]", "enrichment": "1.31 log2 (fold change of variant abundance after two TEAD sorts vs input, normalised to TB1G1)"}
{"variant": "chain 1 PDEYIENAKECCKKGDIQCCLRYFEESGDPNVMLICLFCP", "note": "[chain 1 R7N]", "enrichment": "0.343 log2 (fold change of variant abundance after two TEAD sorts vs input, normalised to TB1G1)"}
{"variants_of": "B1", "assay": "not given"}
{"variant": "chain 1 M33A", "ratio to parent": "~0.01"}
{"variant": "chain 1 E25A", "ratio to parent": "~0.07"}
